Test results: patent US20020110800A1, “Use of SHP-1 and SHP-2 to detect compounds involved in neuronal survival” (McGill University, priority 1997, published 2002)

Tests used:
Assay in all cases: cell-based or functional assay
[1] = target: wild-type TrkA, baculovirus-expressed, activated (autophosphorylated) (UniProt P04629)
TrkA Y490/785F = TrkA Y490/785F (UniProt P04629)
TrkA Y490F = TrkA Y490F (UniProt P04629)
TrkA Y785F = TrkA Y785F (UniProt P04629)

B1: SHP-2 (enzyme, UniProt Q06124 2-593, looked up, species assumed)
Tyrosine-protein phosphatase non-receptor type 11: TSRRWFHPNITGVEAENLLLTRGVDGSFLARPSKSNPGDFTLSVRRNGAVTHIKIQNTGDYYDLYGGEKFATLAELVQYYMEHHGQLKEKNGDVIELKYPLNCADPTSERWFHGHLSGKEAEKLLTEKGKHGSFLVRESQSHPGDFVLSVRTGDDKGESNDGKSKVTHVMIRCQELKYDVGGGERFDSLTDLVEHYKKNPMVETLGTVLQLKQPLNTTRINAAEIESRVRELSKLAETTDKVKQGFWEEFETLQQQECKLLYSRKEGQRQENKNKNRYKNILPFDHTRVVLHDGDPNEPVSDYINANIIMPEFETKCNNSKPKKSYIATQGCLQNTVNDFWRMVFQENSRVIVMTTKEVERGKSKCVKYWPDEYALKEYGVMRVRNVKESAAHDYTLRELKLSKVGQGNTERTVWQYHFRTWPDHGVPSDPGGVLDFLEEVHHKQESIMDAGPVVVHCSAGIGRTGTFIVIDILIDIIREKGVDCDIDVPKTIQMVRSQRSGMVQTEAQYRFIYMAVQHYIETLQRRIEEEQKSKRKGHEYTNIKYSLADQTSGDQSPLPPCTPTPPCAEMREDSARVYENVGLMQQQKSFR
2 fold: Trk tyrosine dephosphorylation on co-expression in insect cells (anti-pTyr blot) [1] | dephosphorylation of Trk at Y674/Y675 (phospho-specific anti-Trk antibodies, co-expression in insect cells) [1] | Trk tyrosine dephosphorylation on co-expression in insect cells (anti-pTyr blot) (TrkA Y490/785F) | Trk tyrosine dephosphorylation on co-expression in insect cells (anti-pTyr blot) (TrkA Y490F) | Trk tyrosine dephosphorylation on co-expression in insect cells (anti-pTyr blot) (TrkA Y785F)
